Test results: patent publication US8148141 (HIPEP LABORATORIES, dated 2012)
Ends that are not written are not given here. carboxyfluorescein = carboxyfluorescein (fluorescent group); ethyldansyl = not defined here

B1: Cys-Glu(Rf1)-Leu-Lys-Lys-Leu-Leu-Lys-Leu-Leu-Lys-Lys-Leu-Leu-Lys-Leu-Lys(Rf2)-NH2 (peptide)
peptide: CE(ethyldansyl)LKKLLKLLKKLLKLK(dabsyl)-NH2
modifications: reading uncertain; also: printed as Cys-Glu(Rf1)-Leu-Lys-Lys-Leu-Leu-Lys-Leu-Leu-Lys-Lys-Leu-Leu-Lys-Leu-Lys(Rf2)-NH2
notes: Chemically synthesized designed peptide; Immobilized on a glass substrate in the assay; also called alpha-helix peptide with ethyldansyl-dabsyl labels, N-terminal Cys anchor
B2: Glu(Rf1)-Leu-Lys-Lys-Leu-Leu-Lys-Leu-Leu-Lys-Lys-Leu-Leu-Lys-Leu-Lys(Rf2)-Cys-NH2 (peptide)
peptide: E(ethyldansyl)LKKLLKLLKKLLKLK(dabsyl)C-NH2
modifications: reading uncertain; also: printed as Glu(Rf1)-Leu-Lys-Lys-Leu-Leu-Lys-Leu-Leu-Lys-Lys-Leu-Leu-Lys-Leu-Lys(Rf2)-Cys-NH2
notes: Chemically synthesized designed peptide; Immobilized on a glass substrate in the assay; also called alpha-helix peptide with ethyldansyl-dabsyl labels, C-terminal Cys anchor
B3: Lys(Rf3)-Leu-Lys-Lys-Leu-Leu-Lys-Leu-Leu-Lys-Lys-Leu-Leu-Lys-Leu-Cys-NH2 (peptide)
peptide: K(carboxyfluorescein)LKKLLKLLKKLLKLC-NH2
notes: also called peptide containing carboxyfluorescein

Columns and labels:
calmodulin [1] = target: T1, calmodulin (Homo sapiens (Human), UniProt P0DP23 2-149); test: fluorescence of immobilized labeled peptide on glass chip, ex 340 nm / em 480 nm, plate reader, 1.0 uM calmodulin, 25 C, 5 min
calmodulin [2] = target: T1, calmodulin; test: fluorescence of immobilized labeled peptide on glass chip, ex 490 nm / em 520 nm, calmodulin solution, 25 C, 5 min

Binder	increase of the fluorescence intensity (fold) (calmodulin [1]) [times]	increase of the fluorescence intensity (fold) (calmodulin [2]) [times]
B1	~5	–
B2	~5	–
B3	–	~10
